From patent US20050222029A1 (MYRIAD GENETICS, published 2005)

Columns and labels:
[1] = molecular target: T1, GTPase-activiating protein 1 1392-1657 (human, UniProt P46940 1392-1657); experiment: yeast two-hybrid
T1 construct: prey (Gal4 AD-HA fusion); also called IQGAP1; IQGAP
T1 sequence (looked up): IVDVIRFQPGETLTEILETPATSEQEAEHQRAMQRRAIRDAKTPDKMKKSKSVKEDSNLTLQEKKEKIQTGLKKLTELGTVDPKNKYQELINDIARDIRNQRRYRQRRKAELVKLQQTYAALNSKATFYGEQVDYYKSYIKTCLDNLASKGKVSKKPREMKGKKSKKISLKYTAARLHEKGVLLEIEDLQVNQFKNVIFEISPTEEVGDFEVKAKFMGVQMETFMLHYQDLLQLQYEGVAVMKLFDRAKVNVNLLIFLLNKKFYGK

[2] = molecular target: T2, GTPase-activiating protein 1 1419-1657 (human, UniProt P46940 1419-1657); experiment: yeast two-hybrid
T2 construct: prey (Gal4 AD-HA fusion); also called IQGAP1; IQGAP
T2 sequence (looked up): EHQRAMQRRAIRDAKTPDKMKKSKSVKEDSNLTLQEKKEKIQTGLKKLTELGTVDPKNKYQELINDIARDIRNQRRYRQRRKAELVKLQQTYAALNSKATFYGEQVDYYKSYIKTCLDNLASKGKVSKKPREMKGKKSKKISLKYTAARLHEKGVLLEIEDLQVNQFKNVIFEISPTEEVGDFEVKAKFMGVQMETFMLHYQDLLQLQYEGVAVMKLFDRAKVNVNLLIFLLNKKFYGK

[3] = molecular target: T3, Mitotic spindle coiled-coil related protein 701-1082 (human, UniProt Q96R06 701-1082); experiment: yeast two-hybrid
T3 construct: prey (Gal4 AD-HA fusion)
T3 sequence (looked up): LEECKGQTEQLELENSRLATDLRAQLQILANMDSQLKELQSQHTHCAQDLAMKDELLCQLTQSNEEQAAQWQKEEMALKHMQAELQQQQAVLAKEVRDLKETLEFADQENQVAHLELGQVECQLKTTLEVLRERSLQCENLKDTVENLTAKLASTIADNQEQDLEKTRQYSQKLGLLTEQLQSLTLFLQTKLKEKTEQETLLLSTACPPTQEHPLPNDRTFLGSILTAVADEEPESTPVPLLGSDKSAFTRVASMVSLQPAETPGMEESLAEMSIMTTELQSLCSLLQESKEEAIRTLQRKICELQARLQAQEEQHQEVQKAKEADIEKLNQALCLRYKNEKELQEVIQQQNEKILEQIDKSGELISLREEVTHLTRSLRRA

[4] = molecular target: T4, Hook2 protein 201-559 (human, UniProt Q96ED9 201-559); experiment: yeast two-hybrid
T4 construct: prey (Gal4 AD-HA fusion)
T4 sequence (looked up): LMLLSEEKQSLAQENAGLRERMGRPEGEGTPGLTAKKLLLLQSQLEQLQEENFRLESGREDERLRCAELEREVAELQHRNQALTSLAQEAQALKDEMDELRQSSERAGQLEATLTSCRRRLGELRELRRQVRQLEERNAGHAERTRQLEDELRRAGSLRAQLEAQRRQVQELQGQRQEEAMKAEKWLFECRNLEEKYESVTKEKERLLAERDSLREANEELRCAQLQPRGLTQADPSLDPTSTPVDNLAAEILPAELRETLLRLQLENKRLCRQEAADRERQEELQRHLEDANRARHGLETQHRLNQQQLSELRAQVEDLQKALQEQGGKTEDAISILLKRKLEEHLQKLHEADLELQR

[5] = molecular target: T5, Intersection 1 387-611 (human, UniProt Q15811 387-611); experiment: yeast two-hybrid
T5 construct: prey (Gal4 AD-HA fusion); also called Intersectin 1; ITSN1
T5 sequence (looked up): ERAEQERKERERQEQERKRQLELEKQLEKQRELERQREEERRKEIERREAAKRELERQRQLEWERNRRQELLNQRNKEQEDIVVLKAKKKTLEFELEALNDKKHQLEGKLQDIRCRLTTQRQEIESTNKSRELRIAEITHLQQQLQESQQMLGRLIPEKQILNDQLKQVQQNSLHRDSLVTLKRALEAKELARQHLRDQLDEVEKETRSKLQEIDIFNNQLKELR

[6] = molecular target: T6, Pallid 21-172 (human, UniProt Q9UL45 21-172); experiment: yeast two-hybrid
T6 construct: prey (Gal4 AD-HA fusion)
T6 sequence (looked up): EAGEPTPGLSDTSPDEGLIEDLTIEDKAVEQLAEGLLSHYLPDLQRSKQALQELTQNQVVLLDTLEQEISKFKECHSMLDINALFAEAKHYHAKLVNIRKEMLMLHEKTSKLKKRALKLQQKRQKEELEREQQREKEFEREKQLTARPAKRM

[7] = molecular target: T7, GTPase-activiating protein 1 1299-1555 (human, UniProt P46940 1299-1555); experiment: yeast two-hybrid
T7 construct: prey (Gal4 AD-HA fusion); also called IQGAP1; IQGAP
T7 sequence (looked up): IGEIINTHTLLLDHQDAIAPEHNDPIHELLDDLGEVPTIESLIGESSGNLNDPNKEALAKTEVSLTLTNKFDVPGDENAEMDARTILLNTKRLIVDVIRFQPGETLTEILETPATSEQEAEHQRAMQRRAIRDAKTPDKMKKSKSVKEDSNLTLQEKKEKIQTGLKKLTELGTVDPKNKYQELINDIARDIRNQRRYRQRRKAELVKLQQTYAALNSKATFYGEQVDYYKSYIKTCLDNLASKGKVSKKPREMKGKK

[8] = molecular target: T8, VPS28 protein 27-221 (human, UniProt Q9UK41 27-221); experiment: yeast two-hybrid, breast and prostate cancer library
T8 construct: prey (Gal4 AD-HA fusion); also called vacuolar protein sorting 28
T8 sequence (looked up): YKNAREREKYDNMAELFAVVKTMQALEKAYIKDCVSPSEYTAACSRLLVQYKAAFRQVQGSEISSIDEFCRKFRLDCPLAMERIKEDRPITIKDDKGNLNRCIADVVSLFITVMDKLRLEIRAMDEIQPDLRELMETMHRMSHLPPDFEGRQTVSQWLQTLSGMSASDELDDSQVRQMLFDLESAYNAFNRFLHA

binding result [1]: binds
binding result [2]: binds
binding result [3]: binds
binding result [4]: binds
binding result [5]: binds
binding result [6]: binds
binding result [7]: binds
binding result [8]: binds
B1: Tumor Suppressor (TSG101) 240-391 (other, human, UniProt Q99816 240-390, looked up)
chain: WRMKEEMDRAQAELNALKRTEEDLKKGHQKLEEMVTRLDQEVAEVDKNIELLKKKDEELSSALEKMENQSENNDIDEVIIPTAPLYKQILNLYAEENAIEDTIFYLGEALRRGVIDLDVFLKHVRLLSRKQFQLRALMQKARKTAGLSDLY
notes: range 240-391; bait (Gal4 DBD fusion); also called TSG101 240-390
